{"source": "patent US20240181006A1", "about": "“POLYPEPTIDES BINDING ADAMTS5, MMP13 AND AGGRECAN” (Merck Patent GmbH, priority 2017, published 2024)", "binders": {"B1": {"name": "anti-Aggrecan ISVD 114F08 (VHH)", "VHH": "EVQLVESGGGLVQAGGSLRLSCAASGSTFIINVVRWYRRTPGKQRELVATISSGGNANYVDSVRGRFSISRDGAKNAVDLQMNGLKPEDTAVYYCNVPTTHYGGVYYGPYWGQGTLVTVSS"}, "B2": {"name": "anti-ADAMTS5 ISVD 02F03 (VHH)", "VHH": "EVQLVESGGGVVQPGGSLRLSCAASGRTVSSYAMGWFRQAPGKEREFVAGISRSAERTYYVDSLKGRFTISRDNSKNTVYLQMNSLRPEDTALYYCAADLDPNRIFSREEYAYWGQGTLVTVSS"}}, "key": {"[1]": {"biological_target": "recombinant bovine Aggrecan G1-IGD-G2 (bovine) (UniProt P13608)", "experiment": "periplasmic extract ELISA on Bov G1-IGD-G2"}, "[2]": {"biological_target": "recombinant rat Aggrecan G1-IGD-G2 (rat) (UniProt P07897)", "experiment": "periplasmic extract ELISA on Rat G1-IGD-G2"}, "[3]": {"biological_target": "recombinant human Aggrecan G1-IGD-G2 (human) (UniProt P16112)", "experiment": "periplasmic extract ELISA on Hu G1-IGD-G2"}, "[4]": {"biological_target": "recombinant cynomolgus Aggrecan G1-IGD-G2 (cynomolgus)", "experiment": "periplasmic extract ELISA on Cy G1-IGD-G2"}, "[5]": {"biological_target": "recombinant dog Aggrecan G1-IGD-G2 (dog) (UniProt Q28343)", "experiment": "periplasmic extract ELISA on Dog G1-IGD-G2"}, "[6]": {"biological_target": "bovine ADAMTS5 (bovine) (UniProt Q9TT92)", "experiment": "SPR (Biacore T100), ADAMTS5 immobilized on CM5, 100 nM ISVD, Experiment 3"}}, "data": [{"binder": "B1", "values": [{"measurement": "OD 450 nm", "setting": "[1]", "result": 1.18, "unit": "OD 450 nm"}, {"measurement": "OD 450 nm", "setting": "[2]", "result": 2.05, "unit": "OD 450 nm"}, {"measurement": "OD 450 nm", "setting": "[3]", "result": 2.38, "unit": "OD 450 nm"}, {"measurement": "OD 450 nm", "setting": "[4]", "result": 2.32, "unit": "OD 450 nm"}, {"measurement": "OD 450 nm", "setting": "[5]", "result": 1.9, "unit": "OD 450 nm"}]}, {"binder": "B2", "values": [{"measurement": "koff", "setting": "[6]", "result": "4.3e-05", "unit": "s⁻¹"}]}]}
